Measured values taken from US20120263722A1 (AbbVie / Abbott, published 2012).

B1: DVD1857 (bispecific antibody, human IgG1, kappa)
heavy: not shown
light: DIQMTQSPSSLSASVGDRVTITCQASQDITNYLNWYQQKPGKAPKLLIYDASNLETGVPSRFSGSGSGTDFTFTISSLQPEDIATYNCQQCENFPITFGQGTRLEIKRTVAAPQIVLIQSPAIMSASPGEKVTMTCSASSSVSYMYWYQQKPGSSPRLLIYDTSNLASGVPVRFSGSGSGTSYSLTISRMEAEDAATYYCQQWSGYPYTFGGGTKLEIKRTVAAPSVFIFPPSDEQLKSGTASVVCLLNNFYPREAKVQWKVDNALQSGNSQESVTEQDSKDSTYSLSSTLTLSKADYEKHKVYACEVTHQGLSSPVTKSFNRGEC
notes: also called DVD1857H; DVD1857L
B2: DVD1865 (bispecific antibody, human IgG1, kappa)
heavy: not shown
light: DIQMTQSPSSLSASVGDRVTITCSASQDISNYLNWYQQKPGKAPKVLIYFTSSLHSGVPSRFSGSGSGTDFTLTISSLQPEDFATYYCQQYSTVPWTFGQGTKVEIKRTVAAPQIVLIQSPAIMSASPGEKVTMTCSASSSVSYMYWYQQKPGSSPRLLIYDTSNLASGVPVRFSGSGSGTSYSLTISRMEAEDAATYYCQQWSGYPYTFGGGTKLEIKRTVAAPSVFIFPPSDEQLKSGTASVVCLLNNFYPREAKVQWKVDNALQSGNSQESVTEQDSKDSTYSLSSTLTLSKADYEKHKVYACEVTHQGLSSPVTKSFNRGEC
notes: also called DVD1865H; DVD1865L
B3: DVD1899 (bispecific antibody, human IgG1, kappa)
heavy: not shown
light: QSALTQPASVSGSPGQSITISCTGTSSDVGSYNVVSWYQQHPGKAPKLIIYEVSQRPSGVSNRFSGSKSGNTASLTISGLQTEDEADYYCCSYAGSSIFVIFGGGTKVTVLGQPKAAPQIVLIQSPAIMSASPGEKVTMTCSASSSVSYMYWYQQKPGSSPRLLIYDTSNLASGVPVRFSGSGSGTSYSLTISRMEAEDAATYYCQQWSGYPYTFGGGTKLEIKRTVAAPSVFIFPPSDEQLKSGTASVVCLLNNFYPREAKVQWKVDNALQSGNSQESVTEQDSKDSTYSLSSTLTLSKADYEKHKVYACEVTHQGLSSPVTKSFNRGEC
notes: also called DVD1899H; DVD1899L
B4: DVD1901 (bispecific antibody, human IgG1, kappa)
heavy: not shown
light: DIQMTQSPSSLSASVGDRVTITCRASQDVSTAVAWYQQKPGKAPKLLIYSASFLYSGVPSRFSGSGSGTDFTLTISSLQPEDFATYYCQQSYTTPPTFGQGTKVEIKRTVAAPQIVLIQSPAIMSASPGEKVTMTCSASSSVSYMYWYQQKPGSSPRLLIYDTSNLASGVPVRFSGSGSGTSYSLTISRMEAEDAATYYCQQWSGYPYTFGGGTKLEIKRTVAAPSVFIFPPSDEQLKSGTASVVCLLNNFYPREAKVQWKVDNALQSGNSQESVTEQDSKDSTYSLSSTLTLSKADYEKHKVYACEVTHQGLSSPVTKSFNRGEC
notes: also called DVD1901H; DVD1901L
B5: DVD1855 (bispecific antibody, human IgG1, kappa)
heavy: not shown
light: DIEMTQSPDSLAVSLGERATINCRSSQSVLYSSSNRNYLAWYQQNPGQPPKLLIYWASTRESGVPDRFSGSGSGTDFTLTISSLQAEDVAVYYCQQYYSTPRTFGQGTKVEIKRTVAAPQIVLIQSPAIMSASPGEKVTMTCSASSSVSYMYWYQQKPGSSPRLLIYDTSNLASGVPVRFSGSGSGTSYSLTISRMEAEDAATYYCQQWSGYPYTFGGGTKLEIKRTVAAPSVFIFPPSDEQLKSGTASVVCLLNNFYPREAKVQWKVDNALQSGNSQESVTEQDSKDSTYSLSSTLTLSKADYEKHKVYACEVTHQGLSSPVTKSFNRGEC
notes: also called DVD1855H; DVD1855L

Key:
ErbB3 = molecular target: T1, ErbB3 (UniProt P21860 20-643, limits assumed); assay: SPR (BIACORE), N-terminal variable domain to target antigen
T1 construct: also called v-erb-b2 avian erythroblastic leukemia viral oncogene homolog 3
Protocol: (§1) The BIACORE assay (Biacore, Inc, Piscataway, N.J.) determines the affinity of antibodies or DVD-Ig with kinetic measurements of on-rate and off-rate constants. Binding of antibodies or DVD-Ig to a target antigen (for example, a purified recombinant target antigen) was determined by surface plasmon resonance-based measurements with a Biacore® 1000 or 3000 instrument (Biacore® AB. Uppsala, Sweden) using running HBS-EP (10 mM HEPES [pH 7.4], 150 mM NaCl, 3 mM EDTA, and 0.005% surfactant P20) at 25° C. All chemicals were obtained from Biacore® AB (Uppsala, Sweden) or otherwise from a different source as described in the text.
(§2) For example, approximately 5000 RU of goat anti-mouse IgG, (Fcγ), fragment specific polyclonal antibody (Pierce Biotechnology Inc, Rockford, Ill.) diluted in 10 mM sodium acetate (pH 4.5) is directly immobilized across a CMS research grade biosensor chip using a standard amine coupling kit according to manufacturer's instructions and procedures at 25 μg/ml. Unreacted moieties on the biosensor surface are blocked with ethanolamine. Modified carboxymethyl dextran surface in flowcell 2 and 4 is used as a reaction surface. Unmodified carboxymethyl dextran without goat anti-mouse. IgG in flow cell 1 and 3 is used as the reference surface. For kinetic analysis, rate equations derived from the 1:1 Langmuir binding model are fitted simultaneously to association and dissociation phases of all eight injections (using global fit analysis) with the use of Biaevaluation 4.0.1 software. Purified antibodies or DVD-Ig are diluted in HEPES-buffered saline for capture across goat anti-mouse IgG specific reaction surfaces. Antibodies or DVD-Ig, to be captured as a ligand (25 μg/ml) are injected over reaction matrices at a flow rate of 5 μl/min. The association and dissociation rate constants, kₒₙ(M⁻¹s⁻¹) and koff (s⁻¹) are determined under a continuous flow rate of 25 μl/min. Rate constants are derived by making kinetic binding measurements at different antigen concentrations ranging from 10-200 nM. The equilibrium dissociation constant (M) of the reaction between antibodies or DVD-Igs and the target antigen is then calculated from the kinetic rate constants by the following formula: KD=koff/Kₒₙ. Binding is recorded as a function of time and kinetic rate constants are calculated.

[1] = molecular target: T2, Recombinant Human VEGF 165 (human, UniProt P15692-4 27-191); assay: as above
T2 construct: Bought reagent used in the Biacore analyses; also called vascular endothelial growth factor
T2 sequence (P15692 other isoform, or with tags, fused parts or gaps limits assumed): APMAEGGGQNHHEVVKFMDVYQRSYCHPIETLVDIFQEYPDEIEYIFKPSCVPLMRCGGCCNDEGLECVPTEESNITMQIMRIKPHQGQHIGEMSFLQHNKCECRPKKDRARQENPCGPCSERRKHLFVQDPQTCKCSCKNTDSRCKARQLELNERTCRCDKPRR
Protocol: as §1, §2

Binder | Kd (ErbB3) | koff (ErbB3) | kon (ErbB3) | Kd [1] | koff [1] | kon [1]
B1 | 0.12 nM | 0.00015 s⁻¹ | 1.2e+06 M⁻¹ s⁻¹ | – | – | –
B2 | – | – | – | < 0.002 nM | < 1e-06 s⁻¹ | 640000 M⁻¹ s⁻¹
B3 | 6.7 nM | 0.00026 s⁻¹ | 38000 M⁻¹ s⁻¹ | – | – | –
B4 | – | – | – | 0.16 nM | 9.3e-05 s⁻¹ | 580000 M⁻¹ s⁻¹
B5 | 3.7 nM | 0.00038 s⁻¹ | 100000 M⁻¹ s⁻¹ | – | – | –
